# Assay results from patent US20240132572A1.
# Experiments:
# [1] = target: IFN alpha receptor (IFNAR) (UniProt P17181); assay: cell-based or functional assay
# [2] = target: IFN-alpha receptor 1 (IFNAR1) (UniProt P17181); assay: SPR (Biacore X100); rhIFNAR2 immobilised on CM5 chip; 6.25-100 nM IFN fusion mixed with 100 nM IFNAR1 injected (ternary complex)
inhibition of osteopontin (OPN) production in stimulated human PBMC at 1.5 ng/mL [1],inhibition of osteopontin (OPN) production in stimulated human PBMC at 10 ng/mL [1],"IC50 (nM), antiviral activity (cytopathic effect inhibition, A549 cells, EMCV) [1]",Kd [2],Substance
88.4%,81.3%,–,–,natural fibroblast derived human IFNβ-1a (Rebif®) (from UniProt P01574 22-187) (ligand)
–,–,0.0313 nM,18 nM,interferon alpha Fc fusion protein (IFNα-Fc)
